Target: amyloid β-peptide Aβ40, aggregating sample (soluble oligomers, early intermediates) (UniProt P05067)
Experiment: cell-based or functional assay

B1: TJ10 (beta-sheet mini protein) (designed binder)
chain: MAQTFWLSIQGKTLYWQIRIYAIDAAEAEKIFKQYANDNGIDGEWTYDDATKTFTVTE
In the case of B1, the ThT fluorescence: share of Aβ40 aggregated after 18 h is reported as 38%.

Source: US20090170069A1
